The supplement of paper PMC9112550, “Optimization of the antimicrobial peptide Bac7 by deep mutational scanning” (BMC Biology, 2022)

Tested on: Escherichia coli TOP10
Assay: shrunken log2 fold change of peptide-encoding DNA abundance (4.5 h post-induction vs induction); higher = less antimicrobial activity (less host growth inhibition)
Conditions: time post-induction: 4.5 h; library: site-saturation at positions 5, 18, 19, 20
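Also: peptides expressed intracellularly from a pBAD plasmid library in pooled LB shake-flask culture, induced with 0.3% L-arabinose, DNA abundance read by NGS, three biological replicates, DESeq2 with apeglm shrinkage.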

Row | Sequence | shrunken log2 fold change
1 | RRIRFRPPRLPRPRPRPAQCPRP | 0.0148
2 | RRIRHRPPRLPRPRPRPRKSPRP | 0.119
3 | RRIRERPPRLPRPRPRPTGEPRP | -0.0152
4 | RRIRWRPPRLPRPRPRPPCMPRP | 0.00553
5 | RRIRPRPPRLPRPRPRPPAGPRP | 0.506
6 | RRIRRRPPRLPRPRPRPEAQPRP | 0.253
7 | RRIRPRPPRLPRPRPRPVWTPRP | 0.224
8 | RRIRRRPPRLPRPRPRPEYSPRP | -0.265
9 | RRIRKRPPRLPRPRPRPYVIPRP | -0.112
10 | RRIRERPPRLPRPRPRPYGNPRP | -0.0871
11 | RRIRYRPPRLPRPRPRPCDFPRP | -0.227
12 | RRIRERPPRLPRPRPRPEKDPRP | -0.137
13 | RRIRDRPPRLPRPRPRPNCEPRP | 0.133
14 | RRIRIRPPRLPRPRPRPPYQPRP | 2.02
15 | RRIRVRPPRLPRPRPRPSAYPRP | -0.34
16 | RRIRIRPPRLPRPRPRPGDNPRP | -0.317
17 | RRIRVRPPRLPRPRPRPCEEPRP | 0.24
18 | RRIRPRPPRLPRPRPRPDHVPRP | -0.474
19 | RRIRARPPRLPRPRPRPMQGPRP | 0.601
20 | RRIRPRPPRLPRPRPRPLPCPRP | -0.407
21 | RRIRKRPPRLPRPRPRPAHRPRP | 0.562
22 | RRIRSRPPRLPRPRPRPWFWPRP | 0.326

Row | Sequence | shrunken log2 fold change
23 | RRIRRRPPRLPRPRPRPPWIPRP | 0.365
24 | RRIRRRPPRLPRPRPRPFHEPRP | -0.195
25 | RRIRPRPPRLPRPRPRPSKIPRP | -0.129
26 | RRIRARPPRLPRPRPRPMLTPRP | 0.466
27 | RRIRTRPPRLPRPRPRPDVKPRP | -0.521
28 | RRIRMRPPRLPRPRPRPKIMPRP | -0.208
29 | RRIRRRPPRLPRPRPRPSSLPRP | -0.134
30 | RRIRLRPPRLPRPRPRPCYAPRP | -0.0464
31 | RRIRIRPPRLPRPRPRPSQAPRP | -0.244
32 | RRIRYRPPRLPRPRPRPWQHPRP | -0.185
33 | RRIRGRPPRLPRPRPRPWMVPRP | 0.213
34 | RRIRPRPPRLPRPRPRPIDEPRP | -0.0401
35 | RRIRCRPPRLPRPRPRPFIDPRP | -0.464
36 | RRIRLRPPRLPRPRPRPGTSPRP | -0.0167
37 | RRIRARPPRLPRPRPRPRNQPRP | -0.012
38 | RRIRIRPPRLPRPRPRPNFYPRP | -0.565
39 | RRIRKRPPRLPRPRPRPFGIPRP | -0.00674
40 | RRIRVRPPRLPRPRPRPTFWPRP | 0.3
41 | RRIRQRPPRLPRPRPRPCEKPRP | -0.00192
42 | RRIRHRPPRLPRPRPRPCSRPRP | -0.231
43 | RRIRVRPPRLPRPRPRPNMFPRP | -0.103
44 | RRIRIRPPRLPRPRPRPKYCPRP | 0.00104

Row | Sequence | shrunken log2 fold change
45 | RRIRIRPPRLPRPRPRPRFVPRP | -0.104
46 | RRIRQRPPRLPRPRPRPRLHPRP | 0.0368
47 | RRIRARPPRLPRPRPRPDPKPRP | 0.268
48 | RRIRGRPPRLPRPRPRPSMDPRP | 0.0712
49 | RRIRKRPPRLPRPRPRPICYPRP | 0.125
50 | RRIRERPPRLPRPRPRPTKAPRP | 0.043
51 | RRIRVRPPRLPRPRPRPFYYPRP | -0.556
52 | RRIRFRPPRLPRPRPRPDWAPRP | 0.0526
53 | RRIRYRPPRLPRPRPRPSIRPRP | -0.116
54 | RRIRSRPPRLPRPRPRPQWCPRP | 0.111
55 | RRIRARPPRLPRPRPRPYYTPRP | -0.762
56 | RRIRSRPPRLPRPRPRPLQNPRP | -0.0368
57 | RRIRNRPPRLPRPRPRPMYPPRP | -0.271
58 | RRIRNRPPRLPRPRPRPSCTPRP | -0.34
59 | RRIRPRPPRLPRPRPRPMIIPRP | -0.152
60 | RRIRMRPPRLPRPRPRPMWPPRP | 0.0917
61 | RRIRFRPPRLPRPRPRPFNNPRP | -0.262
62 | RRIRYRPPRLPRPRPRPMPLPRP | -0.398
63 | RRIRQRPPRLPRPRPRPGRQPRP | 0.021
64 | RRIRARPPRLPRPRPRPIVFPRP | -0.0956
65 | RRIRYRPPRLPRPRPRPMNEPRP | -0.103
66 | RRIRERPPRLPRPRPRPFLIPRP | -0.728

Row | Sequence | shrunken log2 fold change
67 | RRIRIRPPRLPRPRPRPPVCPRP | 0.108
68 | RRIRIRPPRLPRPRPRPPFKPRP | 0.228
69 | RRIRFRPPRLPRPRPRPDRSPRP | 0.0602
70 | RRIRQRPPRLPRPRPRPQVGPRP | 0.331
71 | RRIRSRPPRLPRPRPRPMDDPRP | -0.0393
72 | RRIRDRPPRLPRPRPRPVNFPRP | 0.0142
73 | RRIRIRPPRLPRPRPRPEKLPRP | -0.048
74 | RRIRERPPRLPRPRPRPGHDPRP | -0.449
75 | RRIRVRPPRLPRPRPRPKTQPRP | 0.0766
76 | RRIRYRPPRLPRPRPRPMFTPRP | -0.629
77 | RRIRDRPPRLPRPRPRPCSHPRP | -0.0198
78 | RRIRMRPPRLPRPRPRPLIPPRP | -0.0413
79 | RRIRHRPPRLPRPRPRPSMSPRP | -0.0246
80 | RRIRPRPPRLPRPRPRPKLLPRP | -0.0549
81 | RRIRDRPPRLPRPRPRPLCQPRP | 0.0964
82 | RRIRERPPRLPRPRPRPAYIPRP | -0.168
83 | RRIRVRPPRLPRPRPRPDPRPRP | 0.395
84 | RRIRNRPPRLPRPRPRPSWYPRP | -0.81
85 | RRIRARPPRLPRPRPRPYYDPRP | -0.215
86 | RRIRMRPPRLPRPRPRPVKDPRP | 0.0812
87 | RRIRARPPRLPRPRPRPYEGPRP | -0.195
88 | RRIRFRPPRLPRPRPRPVQWPRP | 0.184

Row | Sequence | shrunken log2 fold change
89 | RRIRFRPPRLPRPRPRPYLGPRP | -0.11
90 | RRIRWRPPRLPRPRPRPEGVPRP | 0.601
91 | RRIRCRPPRLPRPRPRPNEWPRP | 0.0357
92 | RRIRGRPPRLPRPRPRPWQSPRP | 0.161
93 | RRIRPRPPRLPRPRPRPPPNPRP | 0.743
94 | RRIRCRPPRLPRPRPRPAYLPRP | -0.247
95 | RRIRQRPPRLPRPRPRPNHDPRP | -0.509
96 | RRIRVRPPRLPRPRPRPELGPRP | 0.308
97 | RRIRTRPPRLPRPRPRPPWPPRP | 0.356
98 | RRIRGRPPRLPRPRPRPDHPPRP | -0.0241
99 | RRIRCRPPRLPRPRPRPCCRPRP | -0.106
100 | RRIRSRPPRLPRPRPRPSPRPRP | 0.217
101 | RRIRVRPPRLPRPRPRPQMHPRP | -0.175
102 | RRIRERPPRLPRPRPRPDVCPRP | -0.239
103 | RRIRWRPPRLPRPRPRPAGNPRP | 0.396
104 | RRIRQRPPRLPRPRPRPFDFPRP | -0.404
105 | RRIRRRPPRLPRPRPRPRRYPRP | 0.0835
106 | RRIRLRPPRLPRPRPRPTLVPRP | -0.0392
107 | RRIRPRPPRLPRPRPRPWEGPRP | 0.0632
108 | RRIRRRPPRLPRPRPRPCKCPRP | -0.01
109 | RRIRIRPPRLPRPRPRPAYRPRP | -0.611
